Reference: patent US20020031761A1, “Binding moieties for human parvovirus B19” (priority 1998, published 2002)
Positions of bridges follow the written chain, without caps; N, C: chain ends. No end group written: not given here.

B1: TN9 isolate F01 (peptide, not shown: large carriers)
peptide: LCPAHWQFWCD
modifications: disulfide 2-10 (inferred); also: displayed on M13 phage, coat protein fusion and flanking residues not given here
notes: Tested as phage isolate displaying the peptide (TN9 library)
B2: TN9 isolate A06 (peptide, not shown: large carriers)
peptide: FCQLWWPFQCA
modifications: not fully specified (bridges); printed as Phe-Cys-Gln-Leu-Trp-Trp-Pro-Phe-Gln-Cys-Ala; cysteine pairing not given here
notes: Tested as phage isolate (TN9 library)
B3: TN9 isolate D01 (peptide, not shown: large carriers)
peptide: FCWLWPSSDCF
modifications: disulfide 2-10 (inferred); also: displayed on M13 phage, coat protein fusion and flanking residues not given here
notes: as for B1
B4: A01-TN8 phage isolate (peptide, not shown: large carriers)
peptide: FFCSFWHGGCDD
modifications: disulfide 3-10 (inferred); also: displayed on M13 phage, coat protein fusion and flanking residues not given here
notes: Tested as phage isolate displaying the peptide (TN8 library); The synthetic peptide form is a separate molecule; also called TN8 isolate A01
B5: TN7 isolate A07 (peptide, not shown: large carriers)
peptide: FFCGFWHDCHP
modifications: disulfide 3-9 (inferred); also: displayed on M13 phage, coat protein fusion and flanking residues not given here
notes: Tested as phage isolate displaying the peptide (TN7 library)
B6: TN7 isolate E11 (peptide, not shown: large carriers)
peptide: FCRFWYGCHP
modifications: disulfide 2-8 (inferred); also: displayed on M13 phage, coat protein fusion and flanking residues not given here
notes: Tested as phage isolate displaying the peptide (TN7 library); First template position printed as '-' (10 residues)
B7: TN7 isolate D11 (peptide, not shown: large carriers)
peptide: LFCSFWYNCDA
modifications: disulfide 3-9 (inferred); also: displayed on M13 phage, coat protein fusion and flanking residues not given here
notes: as for B5
B8: TN7 isolate F12 (peptide, not shown: large carriers)
peptide: LFCSFWYNCDD
modifications: disulfide 3-9 (inferred); also: displayed on M13 phage, coat protein fusion and flanking residues not given here
notes: as for B5
B9: TN8 isolate A05 (peptide, not shown: large carriers)
peptide: AFCHFWFHGCDD
modifications: disulfide 3-10 (inferred); also: displayed on M13 phage, coat protein fusion and flanking residues not given here
notes: Tested as phage isolate displaying the peptide (TN8 library)
B10: TN7 isolate C11 (peptide, not shown: large carriers)
peptide: FFCQYWYNCD
modifications: disulfide 3-9 (inferred); also: displayed on M13 phage, coat protein fusion and flanking residues not given here
notes: Tested as phage isolate displaying the peptide (TN7 library); Last template position printed as '-' (10 residues)
B11: TN7 isolate H09 (peptide, not shown: large carriers)
peptide: LFCRFWYNCSA
modifications: disulfide 3-9 (inferred); also: displayed on M13 phage, coat protein fusion and flanking residues not given here
notes: as for B5
B12: TN8 isolate D06 (peptide, not shown: large carriers)
peptide: HFCHFWFGGCPH
modifications: disulfide 3-10 (inferred); also: displayed on M13 phage, coat protein fusion and flanking residues not given here
notes: as for B9

Legend:
[1] = target: T1, purified, recombinant parvovirus B19 capsid proteins VP1 and VP2 (VP1-VP2) (human parvovirus B19, UniProt P07299 1-781; P07299 1-554); experiment: phage ELISA; VP1-VP2 coated on dextrin plates, HRP anti-M13 detection
T1 construct: Surrogate target: partially purified/purified recombinant VP1 + VP2 preparation; Made by methods of US 5,498,413 or WO 91/12269
Experimental: (§1) From convergent screens of phage display libraries, eluted phage were propagated and 376 phage isolates were selected randomly and individually tested for binding to VP1-VP2 by standard ELISA techniques, using a polyclonal anti-phage antibody to detect bound phage. Briefly, VP1-VP2 (2 μl per well) was coated on dextrin plates, blocked with BSA, and individual phage isolates were added to the wells (50 μl, 10⁹ pfu per well). After washing, bound phage were incubated with the detection anti-phage antibodies (100 μl per well HRP-conjugated anti-M13 antibody in PBS-Tween (Pharmacia Inc.)). Wild type phage, displaying no non-phage peptide, were employed as controls. The bound antibody was detected by adding 100 μl per well of two-component TMB (tetramethylbenzidine; Kirkegaard & Perry).

[2] = target: T1, purified, recombinant parvovirus B19 …; experiment: phage ELISA, constant phage against decreasing VP1-VP2 coat; normalized signal interpolated at 1:10 dilution of VP1-VP2
Experimental: as §1
Based on the ELISA data and the sequence similarities within each library, the 18 isolates (Tables 1-3) were selected and evaluated further with respect to their binding characteristics to VP1-VP2. Relative binding of each isolate was studied by ELISA. Each selected phage isolate, held at a constant amount, was contacted with decreasing amounts per well of VP1-VP2, the amounts coating each dextrin well varying from 2 μl down to 0.001 μl. Bound phage were detected as described before using polyclonal anti-phage antibody. […] Using VP1-VP2 at 1:10 dilution as an arbitrary point, a value for the signal was interpolated, and the relative binding strengths are reflected in Tables 1-3, above.

Row | Binder | ELISA signal [1] | relative binding [2]
1 | B1 | 0.5 | –
2 | B2 | 0.7 | –
3 | B3 | 0.7 | 36
4 | B4 | 1.6 | 52
5 | B5 | 0.7 | 27
6 | B6 | 0.6 | 33
7 | B7 | 0.9 | 35
8 | B8 | 0.9 | –
9 | B9 | 1.3 | 30
10 | B10 | 0.7 | 26
11 | B11 | 0.6 | –
12 | B12 | 1.3 | 40
